The subject of data set [1] is exposed keratin proteins on damaged hair. Kind of data set: keratin binding domain absorption test (FITC-conjugated peptides, fluorescence microscopy), damaged hair. The following applies: FITC conjugate, 37° C. for 1 hr, hair washed 10 times. An excerpt: (§1) The peptide-FITC conjugate is not seen on healthy hair because the hydrophobic surface of healthy hair cuticles prevents binding of the peptide. However, peptide-FITC conjugates are shown to be absorbed in damaged hair because the peptide bonds to exposed keratin proteins on damaged hair shafts. […] This is due to binding of the C-terminal cysteine present on Peptide 2 to the exposed keratin protein on the damaged hair.
To provide damaged hair for treatment using the exemplary engineered keratin-binding construct, hair was incubated with 10% H2O2(v/v) in 0.1M Na2CO3/NaHCO3 (pH 9.0) buffer at 50° C. for 1 hr, and then the hairs were washed in deionized (DI) water.
(§2) Samples of healthy and damaged hair were incubated with the FITC-conjugated peptides at 37° C. for 1 hr, followed by washing the hair 10 times (FIG. 5). The results are provided in the images obtained by fluorescent microscopy shown in the right part of FIG. 5.

A short description of data set [2]: keratin binding domain absorption test (FITC-conjugated peptides, fluorescence microscopy), healthy hair. The following applies: FITC conjugate, 37° C. for 1 hr, hair washed 10 times. The protocol: as §1, §2
The next data set has as its system NIH3T3 fibroblast cell. Kind of data set: MTT assay, NIH3T3 fibroblast cell viability. The data set is classed as cell-based. The following applies: in the presence of the protein.
In data set [3] the test system is IFN-γ in fibroblast cells. Kind of data set: IFN-γ ELISA (immune response). In kind it is cell-based. The following applies: LPS positive control. The protocol: (§3) Keratin-binding protein (B22) was tested for immune response by performing an IL-6 ELISA and IFN-γ ELISA. The effects of KBP and KBP-lipid conjugate on the immune response was assessed by measuring levels of IL-6 and IFN-γ in fibroblast cells. No protein was added to the cells as a negative control. Lipopolysaccharides (LPS) were used as a positive control.
(In general: ELISA stands for enzyme-linked immunosorbent assay.)

In a further data set the test system is damaged hair. In words: affinity of keratin binding protein tagged with a fluorescent dye for damaged and undamaged hair (fluorescence microscopy). The protocol: Keratin binding protein tagged with a fluorescent dye was incubated with damaged and undamaged (virgin) hair, and observed by fluorescence microscopy. The results are depicted in FIG. 8, with microscopy images shown on the left and intensity of corrected fluorescence shown on the right. Corrected fluorescence=Integrated Density−(selected area X Mean fluorescence of background).
The damaged hair incubated with keratin binding protein tagged with a fluorescent dye for varying amounts of time was then subjected to washing with shampoo.

Another data set has as its system IL-6 in fibroblast cells. Kind of data set: IL-6 ELISA (immune response). In kind it is cell-based. The following applies: LPS positive control. Here is the method: as §3
Data set [4] can be described thus: solubility test in oil-based solvents. In kind it is physicochemical. The following applies: 2.5 mg protein/10 mL solvent. The protocol: Solubility tests were performed by adding keratin-binding protein to 7 different solvents at concentrations of 2.5 mg protein/10 mL solvent. […] KBP was soluble in polysorbate 40 (Tween® 40) and Solubilisant CLR, with only a few visible particles present in solution.

The text below walks through data of patent publication US20190314260A1, “ENGINEERED TREATMENTS FOR HAIR REPAIR AND LONG-LASTING COLOR RETENTION” (Massachusetts Institute of Technology, priority 2018, published 2019).

No end group written: not given here.

For the molecule “Peptide 2: same keratin binding domain as peptide 1 plus a C-terminal cysteine, AKTKKVELFPKC; SEQ ID NO: 5”, in data set [1], the “affinity to damaged hair compared to Peptide 1” value is recorded as “higher affinity” and the “binding affinity to the damaged hair” value is given as “strong binding affinity”.
As for “peptide1-FITC: Peptide1 (AKTKKVELFPK) conjugated to fluorescein isothiocyanate (FITC) (also: FITC conjugate, site not given here)”, in data set [2], the “binding to healthy hair” value is listed as “Neither peptide1-FITC nor peptide1-FITC is shown as binding”.

B1: KBP: engineered keratin-binding protein without tyrosine residues; keratin-binding domain SEQ ID NO: 1 repeated three times, expressed in E. coli (protein)
chain: MAKTHHHHHHQGQVQHLQAAFSQYKKVELFPKGGQGQVQHLQAAFSQYKKVELFPKGGQGQVQHLQAAFSQYKKVELFPKGGYYYYC
As for B1, the “NIH3T3 fibroblast cell viability” value in the data set on NIH3T3 fibroblast cell was “increased”. In addition, the “production of IFN-γ” value in data set [3] is recorded as “No production”. For the same molecule, in the data set on damaged hair, the “binding to damaged hair versus healthy hair” value is given as “binds more readily to damaged hair”. In the data set with IL-6 in fibroblast cells, the “production of IL-6” value is listed as “No production”. In data set [4], the “solubility in butylene glycol” value is “not soluble”, the solubility in glycerin entry is given as “not soluble”, the “solubility in hexylene glycol” value is on record as “not soluble” and the “solubility in polysorbate 20 (Tween® 20)” value is “not soluble”. For the same molecule, in data set [4] (only a few visible particles), the “solubility in Solubilisant CLR” value is reported as “soluble” and the “solubility in polysorbate 40 (Tween® 40)” value is given as “soluble”.

B2: KBPY: keratin-binding protein with tyrosine residues, SEQ ID NO: 2: MAKT-6His-three keratin-binding domain repeats-YYYYC (protein)
chain: MAKTHHHHHHQGQVQHLQAAFSQYKKVELFPKGGQGQVQHLQAAFSQYKKVELFPKGGQGQVQHLQAAFSQYKKVELFPKGGYYYYC
Turning to B2, the “NIH3T3 fibroblast cell viability” value in the data set with NIH3T3 fibroblast cell is “increased”.
